Source: paper PMC3168688 (American journal of medical genetics. Part B, …, 2011)

Target: T1, c-Myc-tagged SLC9A9 C-terminal with both mutations (V512G and K534R) (rat, UniProt D4A7H1 494-644, V512G | K534R)
T1 sequence (looked up): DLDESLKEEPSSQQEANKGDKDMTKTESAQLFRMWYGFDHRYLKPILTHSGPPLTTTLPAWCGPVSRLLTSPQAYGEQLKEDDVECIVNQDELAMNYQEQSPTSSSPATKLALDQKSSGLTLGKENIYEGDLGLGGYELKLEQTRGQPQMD
Experiment: co-IP

B1: Flag-tagged calcineurin homologous protein (CHP) (natural protein, rat, UniProt P61023 1-195, looked up)
chain: MGSRASTLLRDEELEEIKKETGFSHSQITRLYSRFTSLDKGENGTLSREDFQRIPELAINPLGDRIINAFFSEGEDQVNFRGFMRTLAHFRPIEDNEKSKDVNGPEPLNSRSNKLHFAFRLYDLDKDDKISRDELLQVLRMMVGVNISDEQLGSIADRTIQEADQDGDSAISFTEFVKVLEKVDVEQKMSIRFLH
For B1, the “fold change of CHP co-precipitated against wild-type SLC9A9 C-terminal” value was about 2 fold.
